This is an account of results in US20230144436A1, “MUSCLE TARGETING COMPLEXES AND USES THEREOF FOR TREATING MYOTONIC DYSTROPHY” (Dyne Therapeutics, Inc., priority 2020, published 2023).

B1: 9-D04 (antibody, V domains shown)
VH: QVQLQQSGTELARPGASVKLSCKASGFTFTDYGINWVKQRTGQGLEWIGEIYPSSGNSYYNEKFKAKATLTADKSSSTAYMELRSLTSEDSAVYFCARSTYYGSPIDYWGQGTTLTVSS
VL: DIVMTQSHKFMSTPVGDRVSITCKASQDVDTTVAWYQQKPGQSPKLLIYWASTRQIGVPDRFTGSGSGTDFTLTISNVQSEDLADYFCQQYSTYPLTFGGGTKLEIK
B2: 8-K06 (antibody, V domains shown)
VH: QVHLQQPGAELVKPGASVKMSCKASGYTFTSYWITWVKQRPGQGLEWIGDIFPNSGRTNYDEKFKSKATLTVDTSSSTAYMQLSSLTSEDSAVYFCAREGNFGSLDYWGQGTTLTVSS
VL: QIVLTQSPAIMSASPGEKVTMTCSANSNLNYMNWYHQKSGTSPKRWIYDTSKLASGVPARFSASGSGTSYSLTISSMEAEDAATYYCQQWSRNPLTFGAGTRLELK
B3: 8-D15: anti-TfR1 antibody, VH SEQ ID NO: 132, VL SEQ ID NO: 133 (antibody, V domains shown)
VH: QVQLKESGPGLVAPSQSLSITCTVSGFSLTSYAITWVRQSPGKGLEWLGLIWTGGGTNYNSALKSRLSISKDNSKSQVFLKMNSLQTDDTARYYCARIYDGYYRYFDVWGTGTTVTVSS
VL: RIVLTQTPKFLLVSAGDRVTMTCKASQSVSNDVAWYQQKPGQSPKLLIYYASNRYTGVPDRFTGSGYGTDFTFTISTVQAEDLAVYFCQQDYSSPWTFGGGTKLEIK
B4: 9-C04 (antibody, V domains shown)
VH: EVQLMESGGDLVKPGGSLKLSCAASGFTFSSYGLSWVRQTPDKRLEWVATITSGGSYTYYPDSVKGRFTISRDNARNTLYLQMFSLKSEDTAMYYCALWSLDYWGQGTTLTVSS
VL: QIVLTQSPAIMSASPGEKVTMTCSANSSLSYMHWYQQKPGTSPKRWIYDTSELASGVPARFSGSGSGTSYSLTISSMEAEDAATYYCHQRRSYPWTFGGGTKLEIK
B5: 10-H02 (antibody, V domains shown)
VH: EVQLVESGGDLVKPGGSLKLSCAASGFTFSDYGMHWVRQGPEKGLEWVAYINSGSSTIYYADTVKGRFTISRDNAKNTLFLQMTSLRSEDTAMYYCARPGDYDNYAMDYWGQGTSVTVSS
VL: DIVMTQSHKFLSTSVGDRVSITCKASQDVSVAVAWYQQKPGQSPKLLIYWAYTRHTGVPDRFTGSGSGTEYTLTISSVQAEDLALYYCQQHYNTPPWTFGGGTKLEIK
B6: 4-C05 (antibody, V domains shown)
VH: QVQLQQSGAELMKPGASVKISCKATGYTFSNYWIEWVKQRPGHGLEWIGEILPGSGSTNYNENFKGKATFTADTSSNTAYMQLSSLTSEDSAVYYCARRGAYGNFHYWGQGTTLTVSS
VL: EIVLTQSPALMAASPGEKVTITCSVSSSISSSNLHWYQQKSETSPKPWIYGTSNLASGVPVRFSGSGSGTSYSLTISSMEAEDAATYYCQQWRSYPYTFGGGTKLEIK
B7: 3-E05 (antibody, V domains shown)
VH: EIQMKQSGAELVKPGASVKISCKASGYSFTGYNMNWVKQSHGKSLEWIGNINPYYGSTGYNQKFKGKATLTVDKSSSTAYMQLNSLTSEDSAVYYCARGDYGYDEGTWFAYWGQGTLVTVSA
VL: DIVMSQSPSSLAVSAGEKVTMSCKSSQSLLNSRTRKNYLAWYQQKPEQSPKLLIYWASTRESGVPDRFTGSGSGTDFTLTISSVQAEDLAVYYCKQSYNLPFTFGSGTKLEIK
B8: 6-D03 (antibody, V domains shown)
VH: QVQLQQPGAELVKPGASVKMSCKASGYTFTRHWITWVKQRPGQGLEWIGDIYPGSGRTNYNEKFKSTATLTVDTSSSTAYMQLSSLTSEDSAVYYCARDGYLYINYFDYWGQGTTLTVSS
VL: ENVLTQSPAIMSASPGEKVTMTCSASSSVSFMHWFQQKSSTSPKLWIYDTSKLASGVPGRFSGSGSGSSYSLTISSMAAEDVATYYCFQGSGYPYTFGGGTKLEIK
B9: 3-A04 (antibody, V domains shown)
VH: EVQLQQSGAELVRPGASVKLSCTASGFNIKDDYMYWVKQRPEQGLEWIGWIDPENGDTEYASKFQDKATVTADTSSNTAYLQLSSLTSEDTAVYYCTLWLRRGLDYWGQGTSVTVSS
VL: DIVMTQAAPSVPVTPGESVSISCRSSKSLLHSNGYTYLFWFLQRPGQSPQLLIYRMSNLASGVPDRFSGSGSGTAFTLRISRVEAEDVGVYYCMQHLEYPFTFGGGTKLEIK
B10: 9-D4 (antibody, V domains shown)
VH: B1 VH
VL: B1 VL
B11: 8-K6 (antibody, V domains shown)
VH: B2 VH
VL: B2 VL
B12: 3-E5 (antibody, V domains shown)
VH: B7 VH
VL: B7 VL
B13: 6-D3 (antibody, V domains shown)
VH: B8 VH
VL: B8 VL
B14: 5-H12 (antibody, V domains shown)
VH: QIQLQQSGPELVRPGASVKISCKASGYSFTDYCINWVNQRPGQGLEWIGWIYPGSGNTRYSERFKGKATLTVDTSSNTAYMQLSSLTSEDSAVYFCAREDYYPYHGMDYWGQGTSVTVSS
VL: DIVLTQSPTSLAVSLGQRATISCRASESVDGYDNSFMHWYQQKPGQPPKLLIFRASNLESGIPARFSGSGSRTDFTLTINPVEAADVATYYCQQSSEDPWTFGGGTKLEIK
B15: 3-A4 (antibody, V domains shown)
VH: B9 VH
VL: B9 VL

Chain of hTfR1 (P02786 whole entry): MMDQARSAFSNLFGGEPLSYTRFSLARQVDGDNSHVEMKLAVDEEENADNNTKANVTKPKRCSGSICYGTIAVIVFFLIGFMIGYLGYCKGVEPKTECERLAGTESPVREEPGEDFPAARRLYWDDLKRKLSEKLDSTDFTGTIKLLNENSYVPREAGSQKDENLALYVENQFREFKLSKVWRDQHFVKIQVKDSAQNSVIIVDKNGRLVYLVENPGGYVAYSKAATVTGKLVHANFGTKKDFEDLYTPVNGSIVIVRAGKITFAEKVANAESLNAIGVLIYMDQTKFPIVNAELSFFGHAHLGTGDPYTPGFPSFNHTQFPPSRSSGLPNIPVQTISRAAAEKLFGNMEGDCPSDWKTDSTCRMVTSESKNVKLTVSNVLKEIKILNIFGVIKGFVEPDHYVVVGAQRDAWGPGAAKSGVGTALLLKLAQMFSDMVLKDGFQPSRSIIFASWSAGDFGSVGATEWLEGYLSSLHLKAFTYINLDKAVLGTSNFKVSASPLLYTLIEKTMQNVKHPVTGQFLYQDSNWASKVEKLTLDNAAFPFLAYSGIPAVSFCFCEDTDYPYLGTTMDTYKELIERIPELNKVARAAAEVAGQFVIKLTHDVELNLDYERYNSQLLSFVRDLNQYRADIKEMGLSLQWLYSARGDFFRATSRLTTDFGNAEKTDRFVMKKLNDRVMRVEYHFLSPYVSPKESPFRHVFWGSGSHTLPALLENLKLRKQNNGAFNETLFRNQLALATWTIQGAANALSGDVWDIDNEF

One test has as its target hTfR1 (Homo sapiens, UniProt P02786). Put plainly: Binding kinetics of anti-TfR1 antibodies on Carterra LSA, hTfR1. The conditions noted are these: Carterra LSA at 25 C. The protocol: Selected anti-TfR1 antibodies were tested for their binding affinity to human TfR1 for measurement of Ka (association rate constant), Kd (dissociation rate constant), and KD (affinity). […] The binding experiment was performed on Carterra LSA at 25 C. An anti-mouse IgG and anti-human IgG antibody “lawn” was prepared on a HC30M chip by amine coupling. 59 IgGs (58 mouse mAbs and 1 human mAb) were captured on the chip. Dilution series of hTfR1, cyTfR1, and hTfR2 were injected to the chip for binding (starting from 1000 nM, 1:3 dilution, 8 concentrations).
Binding data were referenced by subtracting the responses from a buffer analyte injection and globally fitting to a 1:1 Langmuir binding model for estimate of Ka (association rate constant), Kd (dissociation rate constant), and KD (affinity) using the Carterra™ Kinetics software. 5-6 concentrations were used for curve fitting.
As for B1, the “dissociation rate constant (koff)” value is 246 µM. Turning to B2, the “dissociation rate constant (koff)” value is 10 µM. In the case of B3, the “dissociation rate constant (koff)” value came to 257 µM. For B4, the “dissociation rate constant (koff)” value came out at 575 µM. The same measure, in the same setting: for B5 the value was 342 µM. B6: the “dissociation rate constant (koff)” value was determined as 48.5 µM.

With B7, the “dissociation rate constant (koff)” value came to 10 µM.

For the molecule B8, the “dissociation rate constant (koff)” value was 107 µM.

Turning to B9, the “dissociation rate constant (koff)” value was 195 µM.

For a further test, the system named is DMPK. Put plainly: DMPK knockdown by anti-TfR1 antibody-oligonucleotide conjugates in NHP myotubes. The class given is cell-based, non-human primate. The conditions noted are these: conjugate with control DMPK-ASO, 72 hours, concentration not stated (0.5, 5, 50 nM tested). The protocol:
(§1) The purified complexes were then tested for cellular internalization and inhibition of the target gene, DMPK. Non-human primate (NHP) or DM1 (donated by DM1 patients) cells were grown in 96-well plates and differentiated into myotubes for 7 days. Cells were then treated with escalating concentrations (0.5 nM, 5 nM, 50 nM) of each complex for 72 hours. Cells were harvested, RNA was isolated, and reverse transcription was performed to generate cDNA. qPCR was performed using TaqMan kits specific for Ppib (control) and DMPK on the QuantStudio 7. The relative amounts of remaining DMPK transcript in treated vs non-treated cells was were calculated and the results are shown in Table 14 and FIG. 20.
as §1, with “of” for “of the target gene,”, “in” for “in Table 14 and”, “23.” for “20.”
Regarding B10, the “% knockdown of DMPK in NHP cells using Antibody-DMPK ASO conjugate” value (from here on “% knockdown of DMPK in NHP cells”) was found to be 42%. With B11, the “% knockdown of DMPK in NHP cells” value is listed as 73%. As for B12, the “% knockdown of DMPK in NHP cells” value is 59%. As to B13, the “% knockdown of DMPK in NHP cells” value is listed as −8%.

With B14, the “% knockdown of DMPK in NHP cells” value turned out to be 88%.

Take B15: the “% knockdown of DMPK in NHP cells” value is given as 77%.

For a further test, the system named is DMPK. The experiment in a line: DMPK knockdown by anti-TfR1 antibody-oligonucleotide conjugates in DM1 patient myotubes. The class given is cell-based, human. The conditions noted are these: DM1 patient myotubes, conjugate with control DMPK-ASO, 72 hours; concentration not stated (0.5, 5, 50 nM tested). As for the experimental part:
as §1
as §1, with “of” for “of the target gene,”, “in” for “in Table 14 and”, “23.” for “20.”
On to B10, for which the “% knockdown of DMPK in cells from human DM1 patients using Antibody-DMPK ASO conjugate” value (“% knockdown of DMPK in cells” below) came out at 62%. As to B11, the “% knockdown of DMPK in cells” value turned out to be 34%. Regarding B12, the “% knockdown of DMPK in cells” value is given as 71%. On to B13, for which the “% knockdown of DMPK in cells” value is −5%. As for B14, the “% knockdown of DMPK in cells” value was found to be 57%. On the same count and under the same terms, the value for B15 was 70%.

Still in this test, the particulars now being: conjugates with control DMPK-ASO, in either cyno cells or human DM1 patient cells.
As to B10, the “activity in delivering a payload (DMPK ASO) and achieving DMPK knockdown compared to the control antibody 15G11” value is recorded as “superior activity”. On to B11, for which the “activity in delivering a payload (DMPK ASO) and achieving DMPK knockdown compared to the control antibody 15G11” value was “superior activity”. On the same count and under the same terms, for B12 the value was “superior activity”; for B14, “superior activity”. For B15, the “activity in delivering a payload (DMPK ASO) and achieving DMPK knockdown compared to the control antibody 15G11” value is given as “superior activity”.
